This is an account of results in patent US20100158904A1 (GLENMARK PHARMACEUTICALS S A, published 2010).

Assay [1] addresses human α2β1 integrin (VLA-2) expressed on human cancer cell lines (human) (UniProt P17301). The experiment in a line: flow cytometry, 10 µg/mL hIgG4-FITC control on HPAF-II cells. On the technique in general: A flow cytometer gives signals particle by particle.
The target is the same in assay [2]. Put plainly: flow cytometry, 10 µg/mL hIgG4-FITC control on AsPC-1 cells.
Assay [3] has the same target. Put plainly: flow cytometry, 10 µg/mL hIgG4-FITC control on SK-BR-3 cells.
The target is the same in assay [4]. The experiment in a line: flow cytometry, hIgG4-FITC control on HT-1080 cells.
For assay [5], the target named is T1, human α2β1 integrin (VLA-2) expressed on human cancer cell lines (human, UniProt P17301 30-1181; P05556 21-798).
T1 construct: also called α2 integrin; CD49b (α2 subunit)
Put plainly: inhibition of adhesion of CFSE-labelled AsPC-1 cells to human collagen type I, experiment I. As for the experimental part: (§1) Ninety six well ELISA plates (black cliniplate, Thermo Firsher scientific, cat n^o 9502867) were coated with 100 μl of human collagen type I (SIGMA, cat n^o C7774) at 50 μg/mL in Acetic Acid 0.02N or in PBS. Collagen was either diluted in acetic acid and incubated for 1 hour at 37° C. or diluted in PBS and incubated overnight at 4° C. Plates were blocked with 150 μl of PBS supplemented with 0.1% BSA or 1% BSA (Sigma, cat n^o A3059). Cells were first labelled with CFSE (Invitrogen cat n^o C34554) into serum free DMEM medium (PAA, cat n^o E15-005). Three μl of a 15 mM CFSE solution was added to 5 ml cells at a concentration between 1×10⁶ cells/ml to 0.6×10⁶ cells/ml. Cells were incubated with CFSE for 10 minutes at 37° C. and CFSE excess was removed by centrifugation of the cells at 900 rpm for 3 min. CFSE-labelled cells were resuspended at a concentration between 0.6×10⁶ to 1×10⁶ cells/ml in DMEM supplemented with 0.1% BSA. […] Wells in the plates were filled with PBS and fluorescence with excitation at 498 nm and emission at 525 nm was measured using Synerg HT2 fluorometer. Data were analyzed using PRISM software. Activity of the anti-VLA-2 antibody was expressed as EC₅₀ which is defined as the concentration of antibody that provokes a response halfway between the baseline and the maximum response. […]

The target of assay [6] is T1, human α2β1 integrin (VLA-2) expressed …. Put plainly: inhibition of adhesion of CFSE-labelled HPAF-II cells to human collagen type I, experiment II. As for the experimental part:
as §1

Assay [7] shares this target. The experiment in a line: inhibition of adhesion of CFSE-labelled AsPC-1 cells to human collagen type I, experiment II. As for the experimental part: as §1
The target is the same in assay [8]. The experiment in a line: inhibition of adhesion of HPAF-II cells to human collagen type I, mean of 2 experiments. How it is done: as §1
Assay [9] has the same target. The experiment in a line: inhibition of adhesion of CFSE-labelled HPAF-II cells to human collagen type I, experiment I. How it is done: as §1
The target is the same in assay [10]. Put plainly: inhibition of adhesion of SK-BR-3 cells to human collagen type I, mean of 2 experiments. As for the experimental part: as §1
Assay [11] has the same target. Put plainly: inhibition of adhesion of CFSE-labelled SK-BR-3 cells to human collagen type I, experiment II. As for the experimental part: as §1
Assay [12] shares this target. The experiment in a line: inhibition of adhesion of AsPC-1 cells to human collagen type I, mean of 2 experiments. As for the experimental part: as §1
Assay [13] shares this target. The experiment in a line: inhibition of adhesion of CFSE-labelled SK-BR-3 cells to human collagen type I, experiment I. As for the experimental part:
as §1

The target is the same in assay [14]. Put plainly: inhibition of cell adhesion to human collagen type I; ratio between two cell lines. As for the experimental part:
as §1

For assay [15] the target is unchanged. Put plainly: inhibition of adhesion of HT-1080 cells to human collagen type I, mean of 3. As for the experimental part: as §1

Chain of human α2β1 integrin (VLA-2) expressed on human cancer cell lines (human) (P17301 30-1181 E534K limits assumed, chain 1 of 2): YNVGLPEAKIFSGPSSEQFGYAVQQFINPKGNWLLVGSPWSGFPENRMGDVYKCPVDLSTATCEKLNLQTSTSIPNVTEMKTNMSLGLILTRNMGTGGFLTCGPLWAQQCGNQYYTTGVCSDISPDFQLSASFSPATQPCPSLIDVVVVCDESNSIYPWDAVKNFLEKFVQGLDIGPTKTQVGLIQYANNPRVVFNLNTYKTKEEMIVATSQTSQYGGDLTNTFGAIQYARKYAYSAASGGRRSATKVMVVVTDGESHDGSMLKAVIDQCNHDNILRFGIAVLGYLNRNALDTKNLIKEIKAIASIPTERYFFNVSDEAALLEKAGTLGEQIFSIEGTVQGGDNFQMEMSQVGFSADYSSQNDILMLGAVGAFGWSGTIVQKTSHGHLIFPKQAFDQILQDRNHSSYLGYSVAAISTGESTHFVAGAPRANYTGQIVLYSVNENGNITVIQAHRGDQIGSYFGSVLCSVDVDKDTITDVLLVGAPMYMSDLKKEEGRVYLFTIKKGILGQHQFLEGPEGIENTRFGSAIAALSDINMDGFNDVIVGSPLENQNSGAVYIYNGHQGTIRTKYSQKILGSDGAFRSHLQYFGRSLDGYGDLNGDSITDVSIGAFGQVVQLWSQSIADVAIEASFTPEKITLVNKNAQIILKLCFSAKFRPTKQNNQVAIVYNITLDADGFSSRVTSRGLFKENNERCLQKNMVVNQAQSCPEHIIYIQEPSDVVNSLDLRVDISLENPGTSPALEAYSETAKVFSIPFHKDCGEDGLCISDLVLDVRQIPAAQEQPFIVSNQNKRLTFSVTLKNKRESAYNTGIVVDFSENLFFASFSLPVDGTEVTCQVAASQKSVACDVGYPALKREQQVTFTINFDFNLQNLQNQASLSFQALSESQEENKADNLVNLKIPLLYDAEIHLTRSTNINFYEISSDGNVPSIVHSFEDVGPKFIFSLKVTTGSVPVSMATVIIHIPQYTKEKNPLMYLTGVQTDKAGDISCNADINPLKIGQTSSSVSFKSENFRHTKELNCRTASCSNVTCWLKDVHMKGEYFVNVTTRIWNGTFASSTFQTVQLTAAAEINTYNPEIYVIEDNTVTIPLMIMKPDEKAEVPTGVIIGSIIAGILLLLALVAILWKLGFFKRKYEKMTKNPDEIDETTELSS
Chain of human α2β1 integrin (VLA-2) expressed on human cancer cell lines (human) (chain, as listed by the source limits assumed, chain 2 of 2): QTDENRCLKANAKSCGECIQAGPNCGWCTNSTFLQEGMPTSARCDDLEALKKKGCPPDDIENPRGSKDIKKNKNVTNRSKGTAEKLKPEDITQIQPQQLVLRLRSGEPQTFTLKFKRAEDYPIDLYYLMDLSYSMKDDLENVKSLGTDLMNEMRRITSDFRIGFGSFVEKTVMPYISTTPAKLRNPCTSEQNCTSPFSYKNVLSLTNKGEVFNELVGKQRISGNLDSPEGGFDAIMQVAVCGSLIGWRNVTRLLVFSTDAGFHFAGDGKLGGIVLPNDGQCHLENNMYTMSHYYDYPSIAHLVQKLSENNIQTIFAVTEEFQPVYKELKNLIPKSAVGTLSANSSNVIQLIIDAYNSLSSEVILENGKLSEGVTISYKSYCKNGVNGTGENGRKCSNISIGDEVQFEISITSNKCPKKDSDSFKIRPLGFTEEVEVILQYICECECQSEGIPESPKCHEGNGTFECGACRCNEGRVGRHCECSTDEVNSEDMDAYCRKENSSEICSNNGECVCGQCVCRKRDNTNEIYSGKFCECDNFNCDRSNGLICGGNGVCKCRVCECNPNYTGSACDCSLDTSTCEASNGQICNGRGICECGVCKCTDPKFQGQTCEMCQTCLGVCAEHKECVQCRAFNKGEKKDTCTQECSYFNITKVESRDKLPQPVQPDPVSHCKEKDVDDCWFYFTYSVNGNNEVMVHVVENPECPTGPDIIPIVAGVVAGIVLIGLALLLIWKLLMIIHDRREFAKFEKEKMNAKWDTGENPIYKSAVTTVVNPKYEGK
T1 sequence (P17301 30-1181 E534K limits assumed, chain 1 of 2): as the sequence (P17301 30-1181 E534K limits assumed, chain 1 of 2) above
T1 sequence (P05556 21-798 limits assumed, chain 2 of 2): as the sequence (chain, as listed by the source limits assumed, chain 2 of 2) above

On to hIgG4 isotype control antibody, for which the MFI in assay [1] was 14.9; in assay [2] it was 6.8; in [3] it was 3.4; in [4], 4.9.

B1: GBR500, humanized anti-human α2 integrin antibody (antibody, human IgG4, kappa, V domains shown)
VH: QVQLQESGPGLVKPSETLSLTCTVSGFSLTNYGIHWIRQPPGKGLEWLGVIWARGFTNYNSALMSRLTISKDNSKNQVSLKLSSVTAADTAVYYCARANDGVYYAMDYWGQGTLVTVSS
VL: DFVMTQSPAFLSVTPGEKVTITCSAQSSVNYIHWYQQKPDQAPKKLIYDTSKLASGVPSRFSGSGSGTDYTFTISSLEAEDAATYYCQQWTTNPLTFGQGTKVEIKR
notes: Its isotype-matched control is a humanized IgG4; also called GBR500-FITC; Biotin-GBR500
Take B1: the EC50 (in general, the concentration at which the effect is half-maximal) was determined as 0.047 mg/L in assay [5]; 0.103 mg/L in [6]; 0.036 mg/L in assay [7]; 0.163 mg/L in [8]; 0.224 mg/L in [9]; 0.036 mg/L in assay [10]. Moreover, the EC50 in [11] worked out at 0.032 mg/L; in assay [12], 0.041 mg/L; in [13] it was 0.039 mg/L; in [15], 0.076 mg/L. Also, the “fold EC50 on HPAF-II cells against EC50 on AsPC-1 cells” value in assay [14] stood at 3.9 fold.

B2: TMC-2206, mouse anti-human α2 integrin antibody (BHA2.1 hybridoma) (antibody, V domains shown)
VH: QVQLKESGPGLVAPSQSLSITCTVSGFSLTNYGIHWVRQPPGKGLEWLGVIWARGFTNYNSALMSRLIITKDNSQSQVFLKMNSLQPDDSATYFCARANDGVYYAMDYWGQGTSVTVSS
VL: QFVLTQSPAFLSASPGEKVTMTCSANSSVNYIHWYQQKSGTSPKKWIYDTSKLASGVPVRFSGSGSGTSYSLTISSMETEDAATYYCQQWTTNPLTFGAGTRVELK
notes: Murine monoclonal antibody (Glenmark/Millipore, cat. MAB1998); also called MAB1998
For B2, the EC50 stood at 0.074 mg/L in assay [5]; 0.253 mg/L in [6]; 0.087 mg/L in assay [7]; 0.29 mg/L in assay [8]; 0.326 mg/L in [9]; 0.08 mg/L in assay [12]. For the same molecule, in assay [15], the EC50 is 0.097 mg/L. For the same molecule, in assay [14], the “fold EC50 on HPAF-II cells against EC50 on AsPC-1 cells” value turned out to be 3.6 fold.
